Laboratory results from the DeepSol protein solubility set.

assay: soluble on expression in E. coli; label from the status in PepcDB or PDB records

| Sequence | soluble on expression in E. coli |
| --- | --- |
| MGPAQIWRLKFSNDKLTWEQECTFERSQYYDSIICACVYRFYHGAPPVVLFGTYSGRILQYELPPPTKFVRKSMKDVPKCGKPINLLINHGIYFIRQTGFNEIASITPFGLYILRENFHASKRLGKFGQFWLNRLQNRLLVKNPGSIDDFSAAEIRRLSIDSAQEQMRPRIGSTVSQLTFRYSDDDTLLLEKGGEKRRQTLGARDFQVSPRFYSRKIGKKIRFFLKFFREKLAGIENFRQIGKLAKMKISGKPANCQNFLPISNRGKLRKNFFFSENNDKF | not soluble |
| MGPDTTSERVSEDLMQAVTCLKRVMVGMKSNGTDYVQEQTPSNSTTVICTLVKITGALERCIESNKAMNDVLNGKMKCTTCGATSVGLLSDCHDSATSTTTTVSHRSSEEPPRRKPSAAGGDHDDEELECSSIESRSIRSVSSSVHTSAEDDETNQTMMVPTDVADVINAIVAGTNGSSNSNTTSSSKSPQEEEEEHDLVMKSILSTTTSTSNTKLELSEKLENPLQDTALLDQFLQASLLGQTPTVTPASEENEEDKEQNAVLTSFLQILFANQQAGNAILDAGSSENDGSTSSSQPSPPADPTASLDSLAMFESLLAESMNGNVLDANTSSADQKAAARKRKSTPMKVPKSENGAGYICPMDGCNKVFKEKGSVHRHFVTHIGMRFNCDKCKASYTQKHALMLHQKIHANPDAYQCRGCGTNYTTQNGLRLHRQRNPACMEVSNALEFNTSLNTSISEALSGPLSKNSSPTKQMVSAP | not soluble |
| MGPNHPCGYLPGRDARFTYVSPAYPLSPQSYRGLLEEGFRRSGNWVYRPCCIGCSACLPVRLPVHDFRLTRSHRRVIKRNADIDIRVSVARFDERQFQLYVRYLAARHPTDTPVSRDDYWSFVSSSWAQTRFVEFRSYSELIGVAVVDHVPGALSAVYTFFDPDAAERSPGSLAILWQILEARRLGREWLYLGYWIGGCRKMEYKARYRPLEALIANRWRRFQVDEPLTSSVLLEHHHHHH | soluble |
| MGPNPMKMYPIEGNKSVQFIKPILEKLENVEVGEYSYYDSKNGETFDKQILYHYPILNDKLKIGKFCSIGPGVTIIMNGANHRMDGSTYPFNLFGNGWEKHMPKLDQLPIKGDTIIGNDVWIGKDVVIMPGVKIGDGAIVAANSVVVKDIAPYMLAGGNPANEIKQRFDQDTINQLLDIKWWNWPIDIINENIDKILDNSIIREVIWKK | soluble |
| MGQEKLLFDQKYKIIKGEKKEKKKNQRANRREHQQKREIMRFKKSFTCIDMHTEGEAARIVTSGLPHIPGSNMAEKKAYLQENMDYLRRGIMLEPRGHDDMFGAFLFDPIEEGADLGIVFMDTGGYLNMCGHNSIAAVTAAVETGIVSVPAKATNVPVVLDTPAGLVRGTAHLQSGTESEVSNASIINVPSFLYQQDVVVVLPKPYGEVRVDIAFGGNFFAIVPAEQLGIDISVQNLSRLQEAGELLRTEINRSVKVQHPQLPHINTVDCVEIYGPPTNPEANYKNVVIFGNRQADRSPCGTGTSAKMATLYAKGQLRIGETFVYESILGSLFQGRVLGEERIPGVKVPVTKDAEEGMLVVTAEITGKAFIMGFNTMLFDPTDPFKNGFTLKQYIWSSSVDKLAAALEHHHHHH | soluble |
| MGQMFGVACIDEQSGIVGQAWNNNSVRYISIDEDAVITIQSGPVVGKVAVSNDKTLAYGATINGANTVYVYKKSQAWVPSRLSDISSGTDVWAVALNGDNQWLYYVTANGRLGRIEVDNPTHNEILFEHNDFSGGPFAYIAYSAFEDCFYVTTDKNKILKVWVKEDGTHAYEQINQNNTGTTDGFLADEAKFQYLRGLTIDEDGNIFVCQGDNSHVIRKIAYDENMEKRYVTTVLGTSTVHGTDDGSPDIALFNGPQDISYDGNGGYWIAMRYEPALRKYSIELEHHHHHH | not soluble |
| MGQRGQVCQGRCMAEDQQSSQISDTVPALRRAVRILDLVAGSPRDLTAAELTRILDLPKSSAHGLLAVMTELDLLARSADGTLRIGPHSLRWANGFLSHLDIVSTFNDHLAQRHDLDPYTVTLTVREGGEVVYIGCRNSAQPLGHTFRIGMRLPAPFTATGKILLSDLGPGELRMLFSQFPQPLTSRSVAGLSQLEEELALTRARGYSIDDGQIREGMLCIGAAIRDYSGAASAGIAISLIRSEASDEKIASLGEELRTTANALSEKLGYRSQKD | not soluble |
| MGQRVDKEVTPRFVELGQVSAIRTEPEIAYRSNQGVTRQRQQTKVFKLVSTYDKVAVKNAIRAAYRQVFERDLEPYIINSEFTALESKLSNNEINVKEFIEGLGTSELYMKEFYAPYPNTKVIEMGTKHFLGRAPLNQKEIQQYNQILASQGLKAFIGAMVNGMEYLQTFGEDTVPYRRFPTLPAANFPNTERLYNKLTKQDKELEHHHHHH | soluble |
| MGQSWGYEGIAKRSLCTHKWLYNLNLHSINLFLPIESKMSAQASRQKKSDQEQRAADQALLNAAIEDNAMEQDENFTVIDKLESSGISSGDISKLKEAGYYTYESLAFTTRRELRNVKGISDQKAEKIMKEAMKFVQMGFTTGAEVHVKRSQLVQIRTGSASLDRLLGGGIETGSITEVYGEYRTGKTQLCHSLAVLCQLPIDMGGGEGKCMYIDTNATFRPERIIAIAQRYNMDSAHVLENIAVARAYNSEHLMALIIRAGAMMSESRYAVVIVDCATAHFRNEYTGRGDLAERQMKLSAFLKCLAKLADEYGVAVIITNQVVAQVDGGASMFQADAKKPIGGHIIAHMSTTRLYLRKGKGENRVAKMVQSPNLPEAEATYSITNHGIEDARED | soluble |
| MGQVSAASTILINAEPTATLDALADYETVRPKILSPHYSEYQVLEGGKGRGTVAKWRLQATQSRVRDVQVNVDVAGHTVIEKDMNSSMVTNWTVAPAGPGSSVTVKTTWTGAGGVKGFFEKTFAPLGLKKIQAEVLSNLKTELEGDA | soluble |
| MGRFPSWVLVADWPAPPGVMVLSTLRGGPGVSVAPFDRLNLGNCSGVAGDAPVCVERNRSRLVEMLGLPSVPHWLRQVHGVEVLRVDALLQSIARVVEPTADAAVTSVVGAVLAILTADCLPVVLAAVDGSEIGVVHAGWRGLADDVLGRTVAALRTSPEYLQAWLGPAAGPQAYEVGVDVYAAFVERDSGAACAFSVTRPGHWYVDLYALARQRLMRAGLSAVSIYGGGLCTISDPQRFFSHRRDRRSGRFATLAWIGC | soluble |
| MGRIKQGLDYFPLSTDFMHDRIVRRVMKREGDSAFTVLIYIMSYLYSGEGYYVRADTDFCDELSDQLFSTDNDTVRRVIRLFLEYGLFDSALYERYSILTSEDVQRQYLFITKRRSRHHICPDYCLLPEEKTTDEQPDTVAATGENVAVSPNIATASRDTATKTALIKRKEKEKKENIFPNPPFAKGGDEEEGSEGEKVAEGAGGGMREECDQRSATRKRNLTQEDIDRMQVPPDGCPRNFSGLLENLRLFRVPPAEQYAIVLKSNYGEIGGDIWKGFSVIRGSGGKIKLPGHYLLSVLNK | not soluble |
| MGRKEEDDCSSWKKQTTNIRKTFIFMEVLGSGAFSEVFLVKQRLTGKLFALKCIKKSPAFRDSSLENEIAVLKKIKHENIVTLEDIYESTTHYYLVMQLVSGGELFDRILERGVYTEKDASLVIQQVLSAVKYLHENGIVHRDLKPENLLYLTPEENSKIMITDFGLSKMEQNGIMSTACGTPGYVAPEVLAQKPYSKAVDCWSIGVITYILLCGYPPFYEETESKLFEKIKEGYYEFESPFWDDISESAKDFICHLLEKDPNERYTCEKALSHPWIDGNTALHRDIYPSVSLQIQKNFAKSKWRQAFNAAAVVHHMRKLHMNLHSPGVRPEVENRPPETQASETSRPSSPEITITEAPVLDHSVALPALTQLPCQHGRRPTAPGGRSLNCLVNGSLHISSSLVPMHQGSLAAGPCGCCSSCLNIGSKGKSSYCSEPTLLKKANKKQNFKSEVMVPVKASGSSHCRAGQTGVCLIM | soluble |
| MGRSRRTLPEELLLLALDPTTGTTAQPQSLDLGLAGAQLVELALAGRIAPDGDRIAVVAPRPTGDPTLDCALELLRRRGAPVRAVNWIGGPRLGLRQTYLSHLERCGMVHAVEGQMCGVLPTTRYQATDTAISREIKARLDSAIRTGVPPDPRTAALAALAHAVGLGKHLYPGNEGRSSRSRLRDLIRHDPMGGLVAHAVMDVQNGAAAQPRRSPAPAGRQAPGPGARPAPEPARGVPAQPRHGSMARAAVHLEHHHHHH | soluble |
| MGRVGVLLANLGTPDDYSYWPMRRYLNEFLSDKRVIDYPAWKWQPILQGIILTKRPFSSGAAYESIWNHDKGESPLMTITKDQTAKLRAALAERYGDRVMVDFCMRYGNPSTKSKVRQMVTEGCDRILFFPLYPQYAGATTATANDQFFRALMDETWQPAARTVPAYFDQPAYVDALAQSIERAYAAMDSRPDVLVCSYHGMPERYLMQGD | not soluble |
| MGSDAFDEMDEIWALYADDGAQALDAMEASLLALQAGEDAAAHVGPLFRAVHTFKGNSRVLGLSVVESRAHLCEDLIGLVRDAGVPMDGEIVEILLFASDTLRAMLEETAASRADVEGTGSEALMDQLRSKIARCSRSHHHHHH | soluble |
| MGSDKIHHHHHHACDDDEATDPYDINYVYIYKPSETNATLEYKGDGTFLKEIATEHILSPVRCTKPAPQDLTIQLAIDRSLVDAYNSEYGTSYVALQNAELENATLYIKQGEYISVDTLKVHYTNMEEFKNGSENYILPIAITSINGTGVSASESNSKIFLTFESTYKPNHVTLTSSKEYLLEYQYSQGFTNLSSEWKLDGILKSAWAADGDTKVTLAINPALVGTYNALHGTDYSLLTSASLKQSTIMIKQGKTTPEESVALSFSDDMASVQLGTNYVIPVTITNVDGVGADIGENKVIYIVYKTALVGFLSCVDKPVGSVINDHSGWSFTLNGQSSDLYDYVPDGSILDIDLGKQENIKTIALHFYEWFYSSESASIAISNDGEKYEDLGVASGFANKTSYILLLVAKQAQYIRVTFHGALYYSPYINTVGIYTETE | not soluble |
| MGSDKIHHHHHHACDNSDRIETETQANGVLLNFNASTIDATTTETRSFVPIEGFAKNEYIFGMSVTKDNASRGEIFEGSRNLKATMSRPSGDAPWNWEFSNNASGTVVTPRGPEGKPLRVIAYYPAIAGTENFTDGIPFDFTQTNNPQQKEILYNTNTSYTIPSSGGSDKVTIPLKFQHAYSWISIKVTKSVDKGSHKLSGVSIDNLSGGWIKNKGKINPATGMAMQGAIQGPIGEVRTAEVLDPSGDTATPIIYDFLVPAFMDRNVKDDDLVFTLIIDGKKEIFSLGREHLNNDGDTYGFKQGYVNTYNVEFNNSSLNMRLLNWTSTRIDGDFGQNVTNPTNYQEMSFYYAEDNGGWTTANGKVFPPKYKDLPAGDRRYYNYLTTVKYGGNGEYVPAKPVTDPPPPKGIIIEDDANVATQEPACRLFQMTTKDVSIEPVPWEDEMGQLVAKELCRKYNGGGFKDWRLPRASELRALLVYAIYGAGTKQFINLKLTNDVNREKLYWTGTEESEDKAWAMLYYDDNTLVGRGPNISAQDKSTRLSVRCIRQLQ | not soluble |
| MGSDKIHHHHHHADLQSNFLKMLVTQMNNQDPLNPMDNAQLTSQLAQISTVSSMQTMNSTLTQLLNQTSASRAMDSAALIGRTVMVPGSQFSVKDGVAGQFGVDLPSTADAVTVNVLDAHGNVVRTIDMKGQTAGVHDIAWDGKNDAGVAVADGDYSFKVSATANGTSVQPVALVYGKVNSISGDSSGVLVDVGNGQQANVDDVRRIL | not soluble |
